Assay results reported in patent publication US20060263331A1, “Therapeutic use of tumor necrosis factor-alpha mutein” (priority 2002, published 2006).

Key:
Type in all cases: in vivo, human
Lung Cancer = experiment: Clinical monotherapy of rhTNFm1, lung cancer
Excerpt: (§1) Patients were selected based on the following criteria: i) measurable, objective tumor; ii) Karnofsky performance status (KPS)≧60; iii) age 18-75; iv) major organs in basically normal condition; v) no chemotherapy, radiotherapy and biologic therapy within the last month; vi) predicted ≧3 mon. survival; and vii) with patient's informed consent signed.
(§2) Patients were excluded based on the following criteria: i) with history of allergic reactions to TNF or its derivatives; ii) pregnant or lactating women; iii) major organs with obvious damages or malfunction; iv) in ≧38° C. fever; v) with obvious tendency to haemorrhage; vi) with history of hypo- or hypertension; vii) with serious albuminemia; and viii) with strong tendency of disobedience or resistance.
(§3) Patients were removed from the evaluation if any of the following conditions apply: i) treatment was not completed according to the protocol; ii) incomplete records; and iii) treatment using cancer therapies not in the protocol. However, patients who withdrew due to adverse reactions to the therapy were still included in the evaluation.
(§4) The results of the treatment of tumors were evaluated based the following criteria: i) complete response (CR)—complete disappearance of observable pathological changes for at least 4 weeks; ii) partial response (PR)—reduction by ≧50% in tumor size measured by the product of the maximum circular and vertical dimensions for at least 4 weeks; iii) minimum response (MR)—reduction by >25% but <50% in tumor size measured by the product of the maximum circular and vertical dimensions for at least 4 weeks; iv) stabilized (SD)—reduction by ≦25% but without increase by >25% in tumor size measured by the product of the maximum circular and vertical dimensions for at least 4 weeks; and progression (PD): increase by >25% in tumor size in one or more sites.
(§5) Patients rested on day 1 and 2. The treatment cycle was 3-4 weeks.

Malignant Lymphoma = experiment: Clinical monotherapy of rhTNFm1, malignant lymphoma; conditions: 71 patients
Excerpt: as §1, §2, §3, §4, §5
Table II summaries results of the treatment of patients with malignant lymphoma, classified according to Hodgkin's disease and non-Hodgkin's lymphoma. Within each of category of lymphoma, patients were further classified into two groups: chemo-naïve and chemo-refractory. The chemo-naïve patients were patients who had never been treated with any anti-cancer agent previously whereas chemo-refractory patients were ones who failed treatment with one or more anti-cancer agent.

Breast Cancer = experiment: Clinical monotherapy of rhTNFm1, breast cancer; conditions: 10 patients
Excerpt: as §1, §2, §3, §4, §5

[1] = system: malignant pleural effusion; experiment: Clinical monotherapy of rhTNFm1, malignant pleural effusion; conditions: 141 patients
Excerpt: as §1, §2, §3
The results of the treatment of malignant pleural effusion (or hydrothorax) and ascites were evaluated based on a modified Millar standard (Millar J W, Hunfer A M, Home N W. (1980) “Inerapleural immunotherapy with CP”, in Recurrent Malignant Pleural Effusions. Thorax 35:856): i) complete response (CR)—complete disappearance of pleural effusion or ascites for at least 1 month; ii) partial response (PR)—reduction by at least 1 grade for at least 1 month; iii) minimum response (MR)—reduction in the levels of pleural effusion or ascites within the same grade for at least 1 month; iv) stabilized (SD)—levels of pleural effusion or ascites maintained within the same grade for at least 1 month; and progressed (PD): increase in the levels of pleural effusion or ascites compared with those before the treatment.
as §5
It is noted that Table III includes the patients who withdrew due to […], including 1 with malignant pleural effusion and 1 with malignant ascites. For patients with malignant ascites, rhTNFm1 was reconstituted in 30-50 ml normal saline and administered intraperitoneally (i.p.) at 2,000,000-3,000,000 units each time, 1-2 times a week, with 2-3 weeks as one treatment cycle. Optionally, rhTNFm1 was administered to the patients by alternating between i.p. injection and i.v. injection (at 600,000-900,000 unit/m^2 per day continuing for 28 days as one treatment cycle). On the day when rhTNFm1 was administered via i.p. injection, administration of rhTNFm1 via i.v. injection was stopped.

[2] = KPS of patients treated with rhTNFm1 alone; conditions: P=0.013, particularly malignant pleural effusion
Excerpt: as §1, §5

Malignant melanoma = experiment: Clinical monotherapy of rhTNFm1, malignant melanoma; conditions: 18 patients
Excerpt: as §1, §2, §3, §4, §5

malignant tumors = experiment: Clinical monotherapy of rhTNFm1, all malignant tumors (Total); conditions: Total of tumor indications, 141 patients
Excerpt: as §1, §2, §3, §4, §5

Liver Cancer = experiment: Clinical monotherapy of rhTNFm1, liver cancer; conditions: 12 patients
Excerpt: as §1, §2, §3, §4, §5

[3] = Lung Cancer, 20 patients, monotherapy
[4] = patient count, Lung Cancer, 20 patients, monotherapy

B1: rhTNFm1: Recombinant human TNF-α mutant 1 expressed in E. coli; SEQ ID NO: 3 with N-terminal methionine (FIG. 1, 2) (protein)
chain: MRKRKPVAHVVANPQAEGQLQWLNRRANALLANGVELRDNQLVVPSEGLYLIYSQVLFKGQGCPSTHVLLTHTISRIAVSYQTKVNLLSAIKSPCQRETPEGAEAKPWYEPIYLGGVFQLEKGDRLSAEINRPDYLDFAESGQVYFGIIAQ
modifications: rhTNFm1 with Met
- Response Rate (%) CR (Lung Cancer; [3]): 0.00%
- Response Rate (%) CR + PR (Lung Cancer; [3]): 5.00%
- Response Rate (%) PR (Lung Cancer; [3]): 5.00%
- pleural fluid, reexamination about 1 month later (Lung Cancer; one lung cancer patient): little pleural fluid remained
- tumor diameter, reexamination about 1 month later, CT scanning (Lung Cancer; one lung cancer patient): 3.5 cm
- tumor diameter after the treatment, CT scanning (Lung Cancer; one lung cancer patient, before 5 cm): 2.5 cm
- quality of life score after the treatment (Lung Cancer; one lung cancer patient, before 40): 53
- KPS after the treatment (Lung Cancer; one lung cancer patient, before 70): 90
- pleural fluid after the treatment (Lung Cancer; one lung cancer patient, before a large amount of pleural fluid): small amount of pleural fluid remained
- Efficacy CR (Lung Cancer; [4]): 0
- Efficacy MR (Lung Cancer; [4]): 2
- Efficacy PD (Lung Cancer; [4]): 4
- Efficacy PR (Lung Cancer; [4]): 1
- Efficacy SD (Lung Cancer; [4]): 13
- Response Rate (%) CR (Malignant Lymphoma): 2.82%
- Response Rate (%) CR + PR (Malignant Lymphoma): 28.17%
- Response Rate (%) PR (Malignant Lymphoma): 25.35%
- Efficacy CR (Malignant Lymphoma; patient count): 2
- Efficacy MR (Malignant Lymphoma; patient count): 8
- Efficacy PD (Malignant Lymphoma; patient count): 11
- Efficacy PR (Malignant Lymphoma; patient count): 18
- Efficacy SD (Malignant Lymphoma; patient count): 32
- Response Rate (%) CR (Breast Cancer): 0.00%
- Response Rate (%) CR + PR (Breast Cancer): 0.00%
- Response Rate (%) PR (Breast Cancer): 0.00%
- Efficacy CR (Breast Cancer; patient count): 0
- Efficacy MR (Breast Cancer; patient count): 0
- Efficacy PD (Breast Cancer; patient count): 4
- Efficacy PR (Breast Cancer; patient count): 0
- Efficacy SD (Breast Cancer; patient count): 6
- Response Rate (%) CR [1]: 9.93%
- Response Rate (%) PR [1]: 64.54%
- Efficacy CR ([1]; patient count): 14
- Efficacy MR ([1]; patient count): 9
- Efficacy PD ([1]; patient count): 1
- Efficacy PR ([1]; patient count): 91
- Efficacy SD ([1]; patient count): 26
- KPS compared to that prior to the treatment [2]: significantly improved
- Response Rate (%) CR (Malignant melanoma): 0.00%
- Response Rate (%) CR + PR (Malignant melanoma): 11.11%
- Response Rate (%) PR (Malignant melanoma): 11.11%
- Efficacy CR (Malignant melanoma; patient count): 0
- Efficacy MR (Malignant melanoma; patient count): 3
- Efficacy PD (Malignant melanoma; patient count): 3
- Efficacy PR (Malignant melanoma; patient count): 2
- Efficacy SD (Malignant melanoma; patient count): 10
- Response Rate (%) CR (malignant tumors): 1.42%
- Response Rate (%) CR + PR (malignant tumors): 16.31%
- Response Rate (%) PR (malignant tumors): 14.89%
- Efficacy CR (malignant tumors; patient count): 2
- Efficacy MR (malignant tumors; patient count): 14
- Efficacy PD (malignant tumors; patient count): 29
- Efficacy PR (malignant tumors; patient count): 21
- Efficacy SD (malignant tumors; patient count): 75
- Response Rate (%) CR (Liver Cancer): 0.00%
- Response Rate (%) CR + PR (Liver Cancer): 0.00%
- Response Rate (%) PR (Liver Cancer): 0.00%
- Efficacy CR (Liver Cancer; patient count): 0
- Efficacy MR (Liver Cancer; patient count): 0
- Efficacy PD (Liver Cancer; patient count): 2
- Efficacy PR (Liver Cancer; patient count): 0
- Efficacy SD (Liver Cancer; patient count): 10
